# Target: MBP-TRIM25-FLAG (human, UniProt Q14258 1-630)
# Test: pull-down
# Chain of MBP-TRIM25-FLAG (Q14258 whole entry): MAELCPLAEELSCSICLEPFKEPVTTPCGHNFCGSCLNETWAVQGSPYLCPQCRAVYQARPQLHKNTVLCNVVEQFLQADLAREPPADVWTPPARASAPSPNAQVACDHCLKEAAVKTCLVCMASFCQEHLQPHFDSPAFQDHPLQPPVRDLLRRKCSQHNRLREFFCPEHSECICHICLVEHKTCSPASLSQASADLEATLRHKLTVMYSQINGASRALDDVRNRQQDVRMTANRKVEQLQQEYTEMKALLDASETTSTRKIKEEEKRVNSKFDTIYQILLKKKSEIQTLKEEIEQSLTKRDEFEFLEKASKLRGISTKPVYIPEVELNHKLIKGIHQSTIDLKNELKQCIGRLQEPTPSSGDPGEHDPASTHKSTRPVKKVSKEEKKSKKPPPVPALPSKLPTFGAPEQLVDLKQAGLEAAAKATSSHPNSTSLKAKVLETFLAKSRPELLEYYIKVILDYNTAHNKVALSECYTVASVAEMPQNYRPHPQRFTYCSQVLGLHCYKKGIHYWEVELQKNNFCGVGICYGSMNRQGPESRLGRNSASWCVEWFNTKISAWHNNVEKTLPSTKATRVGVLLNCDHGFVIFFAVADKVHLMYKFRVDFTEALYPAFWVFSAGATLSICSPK
binder,measurement,value
GST-PR8 wt NS1 (natural protein) MDPNTVSSFQVDCFLWHVRKRVADQELGDAPFLDRLRRDQKSLRGRGSTLGLDIETATRAGKQIVERILKEESDEALKMTMASVPASRYLTDMTLEEMSRDWSMLIPKQKVAGPLCIRMDQAIMDKNIILKANFSVIFDRLETLILLRAFTEEGAIVGEISPLPSLPGHTAEDVKNAVGVLIGGLEWNDNTVRVSETLQRFAWRSSNENGRPPLTPKQKREMAGTIRSEV,binding result,binds

# From paper PMC2737813 (Cell host & microbe, 2009)
